Test results: a protein production outcome set (Wang et al. 2014)

experiment: label from the status in PepcDB records
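Note: failed if final PepcDB status was selected cloned or expressed and not failed if soluble or beyond.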

Sequence	protein production
MTFCYVNAYQGGYILYNKGTKSKEVAKMSTKKVYSFLSQAFIFSAIMLISNIIATHLPIPMPSSVIGLVILFSLLCLKVIKLEQVESLGTALTGIIGFLFVPSGISVINSLGVMGQYFVQILTVIVVATVILLAVTGLFAQFILGKDEKETEDTKELKVVNKGRKHGKVA	failed
MTFGEKLLNAASTRGRLCVGIDPHESLLTSWGLPVNVDGLAEFSRACVEAFADTVALVKPQVAFYERFGSAGFAILEETIQTLRERGCLVVSDAKRGDIGSTMAGYASAWLDPASPLSSDAVTVSPYLGFHSLDPVFELAEQHGRGVFVLAATSNPEARELQDQQNADGVSISQQIVDQAAALNAPYMAQGKAGNIGVVIGATLSKPPRLSTLGGAILMPGVGAQGGTASDVDEIAGDMAHLAFPNVSRSILATGPDIAEMKNSVAKNAADFPGFPRS	failed
MTFLQRWQGLADNKICAFAWFVIRRFSEERVPQAAASMTFTTLLALVPVLTVMVAVASIFPVFDRWSDSFVSFVNQTIVPQGADMVFDYIDAFRDQANRLTAIGSVMLVVTSLMLIRTIDNAFNRIWRVNTQRPWMMQFLVYWALLTFGPLSLGVGISFMVGSVQDSVLSSGAQQWADALKTAARLAFMTLLLWGLYRFVPNRFVPARQAFVGALITAFCLETARFLFTWYMGNFDGYRSIYGAFAAVPFFLLWLNLLWTLVLGGAVLTSSLSYWQGEAFRRGFDSRGRFDDVLKILLLLDAAQKEGRTLSVQEFRRHINMGYDELGELLEKLARYGYIYSGRQGWVLKTGADSIELSELFKLFVYRPLPVERDHVNQAVDAVMTPCLQTLNMTLAEFDAQAKKQQQS	failed
MTFTSSFHYQALPMRVSFEVGAVTKIGEELDRLGLSRALVLCTPEQKHLADLVMDHLGDRGAGIFDQARMHVPVETADRARDRARKLGADSCVVIGGGSSIGLGKAIALEHGLPIIAIPTTYAGSEMTPIWGLTRDGRKQTGRDAKVLPQSVIYDPQLTATLPAEISAASGLNAVAHAVEALYAPDASPIISLMAEEGVRAFAESLPAVVADGNDLDARSKALYGAWLCGACLGATTMSLHHKLCHVLGGSLDLPHAQTHAIVLPHVLGYNESHAPAARAALQRALGTDGDPSTALWELEQQLQIPHSLEELGVRETQLPAVIDEVLSNPYSNPTPVTEDGLRHLLGQALRGDRPTRR	failed
MTGAVVVDIPLRWSDMDAQGHVNNVRISELVQESRNQAFYTNGAQEMLDTGIVVVSQDVEFLAPFVVDGSPLRVAVGCSQLGAARTVLDYRAWHHDVEVARARGTICPFDFATGRPRRLTDGERGAFESMKVESQQWKPIKVVDVSEAGDFIEVPIRWSDVDRQGHVNNVSLAGYLQEARILATTSWSPGMRRAGNYLWVVVRQDIRYRRQVLPTQRSCRVHTALTRLGTSSMTLAGSIATEEGSALDAATVLVCVDPKTGASVPIDDQTRQALSAYLVTV	failed
MTGLINAIPATNKDEYKNVGVYIEHRGDELKRPSIEMIGIGKQLARKVNEKLICVVIGDKVDGIAKEVGEYGCDIVLAAESPELAEYRTMPYAEIIGGYIQEYKPNIFLLAATRNGRDLASRIAVKSRTGITADCTVLDIDENRTLLANRPTYGESTLAEILCRNHRPQMATARPGIFPPAEKEKDHKYEVIKKKVDVDKKLLGKQILKFIPRKSTDLTSAKIVVAGGLGLGGPDGFKMLEELANLIGGAVGSSRPPVDLGWITRDHQVGQTGQSVRPDLYIAVGISGKPQHIAGMKFSKVIVSINKDPNAEITKYSDYIITEDYRKVIPALIDAIKNSKKAQAPVQKA	failed
MTGPAENSTNFPGHRLKSPLPLRLATLSLLILYPVAWFAPLMRAGLLPIFGLSEISVITGLQSLWASDVALALIVTAFALFAPYLKTIGTALIQWNLLDPRAQPALHILGKLAMADIFLIALYITLAKGISYATIEAAWGLYLFTACILASIALGLLTERQIRKATR	failed
MTGQAAGPAAGPAAGQATKHAGGRRPGETRTREAILTAARVCFAERGFDATSLRRIAETAGVDQSLVHHFYGTKENLFLQALELPGKIEEAITAAAQGGLDGIGERVVRAHLSVWDDVSSRPALMTMVRSAAIHRAAAARLRETATGILARALGGVITGEDAMLRTSMVATQLVGLAMMRYVAHLEPLASADTDTVARHYGRAVQAIVTDRD	not failed
MTGRVCVLVMDSFGIGASLDAARYGDAGANTLVHIYEACKRGECDIEGVRKGPLMLPNLAGKGLYHAAMASSGLSFIDLATLAIPSGYYGYAVEQSLGKDTPSGHWEMAGVPVTFEWGYFPDKPYCFPEELISEFIKQCNLPGVLGEKHASGTIIIDELGEKHIRTGKPIVYTSADSVFQIAAHEEAFGLQRLYDICKIARNLVDKYQIGRVIARPFTGKPGSFKRTGNRKDYATPPPEKTLLDFLKEDGREVIAIGKIADIYAHQGVTQEIKADGNMALFDATLSAMKTAPQGSLVFTNFVDFDSSYGHRRDIAGYAHALEQFDARLPELDALLQPDDMVFIAADHGCDPTFPGSDHTREHIPVLVFGPQVNSKFIGRRDCFADIGQSIAEHLQLSSPLAHGVSFL	failed
MTHTHRPAALEVHHPQPLAVHPTVAPLVTVQPGPTPAVQSIVLPDGRVVTGYTLTPAPALAPVDARPAVSRTAVNVALGGVGFAAVCGGLVLLTTFIAALTTFISQLITLAAVIFGGWIAVQILGGTRHTGRGGTTINIRKAVIKRSHFHG	failed
MTIAAAPPSSRFRAVRIWLTLVAALIAVMVLVGGATRLTESGLSIVEWKPVTGSLPPLTDTQWHAAFDGYKQIPQYRELNAGMTLDQFKTIFWWEWSHRLLGRVIGIVYLLPFLWFLWRGAIGPEWKRALWIIFALGALQGAVGWWMVASGLSQRTEVSQVRLATHLSLALIIYAAIVWTLRRMADGARVAAPVRLRVTALALLGLTFVQLYAGALVAGLRAGRLYNTWPEIDGALIPDAARLWFESPWWKNLFDNHLTVQFDHRMLAYALWTLAALHMIDALRTRAAARGAVQLFLALTAQATLGIFTVLYAAPIDLALVHQAMALVVLTLAVLQAERLTATRKDRTARDRGAAGRLAIPSEPFPSA	failed
MTIAFLVLVVALASGFAFLNGFRDVSNAVALSTRTRALTPSIAVLLAAIFNFVGAMLSGTFILAFTQSWITLPEGTSGLTMLASALTAAILWGVYAWWRGIPLSSTNSLIGGLIGAGAASVLVGGNAVGGMDNVLLTQVALPLVLSPVIAFVAAYLLVWPVTWAARYTQPNVVNRRFRRAQAISTAAVAFGHGLQDGQRTAAVMVLAMVAAGLSSGSDVPLWILLVTAIMLTAGTMFGGWRISHTLGHKLIRVDPLRGFVAQTLTSVMLFIGAIGFHLPLSTTHTLTAAVLGSGVNQRFHTVNRRLVRRVLLFWVATPLITAAAAFILELAFSPLADL	failed
MTIAHISDLHFGRIADSGVVEALLDEINAAGIDLVAVSGDLTQRARPAEYRAARNLLDALGPPTLVVAGNHDVYPWWRPLKRLRTPLERYRQFITEDLAPTFEAGGVAALGLTSAYGPSIKGGRIGPADRAAMRAFFSGTGDDRFKVLVVHHQLHPTAIGPISPHPVARQAQQTLAVAGEVGIDLILCGHLHISAIQPLEIIPGTPRIVVASAGTATSNRWREPTGPINFYNVVSVEPEAFSVEERRYVPDEGRFVRDGVTRFDHAG	failed
MTIATSTKPQINWVNTLFFLGLHIGALFAFIPSNFSWAAVGVALLLYWITGGLGITLGFHRLVTHRSFQTPKWLEYFLVLCGTLACQGGPIEWVGTHRIHHLHSDTDPDPHDSNKGFWWSHIGWLIYHSPSHADVPRFTKDIAEDPVYQFLQKYFIFIQIALGLLLLYLGGWSFVVWGVFFRIVWVYHCTWLVNSATHKFGYRTYDAGDRSTNCWWVAVLVFGEGWHNNHHAFQYSARHGLEWWEVDLTWMTVQLLQILGLATNVKLADKKQ	failed
MTICCPVIALAFALNRKPVSAPTARIAVLARNTSMSFASLGLIDPLLRNLQDLNYQTPTPVQVKAIPAVLGGKDVMAGAQTGTGKTAGFALPLLQRLVQQGPAVSSNRARVLVLVPTRELAEQVLQSFVAYGKGLDLRFLAAYGGVSINPQMMKLRKGVDVLVATPGRLLDLNRQNAVQFDQVETLVLDEADRMLDLGFARELNAVFAALPVQRQTLLFSATFTDDIRTMAASILRSPVNISVSPPNVTGSKIKQWVVTVDKRNKPDLFMHLVAENNWDHALVFVKTRNGVEYLAAMLDEAGYAVDTIHGDKPQPARLRALERFKTGEVQMLVATDVAARGLDIDDLPLVINVDLPIVAQDYVHRIGRTGRAGASGVAVSLVCADEAPQLAAIEALIGQTLRREEEPGFEAEHRVPETSSTGQIIKKPKKPKKPKVPQGGAAATPVAGKKPQPQGGDGKRKGGGAAGKGASVLNGSPFSVQKPRGKGKPAGKAVAGARKPAGKPAGGRGKH	failed
MTIEKKKNKIIFTRTFSAPINKVFDAYTKRELFEQWFHPQDASVTVYDFNATKGGNAFYAIQAPQMTSYTIAEYLQVDAPYYIEYLDYFATSKGEKDTSMPGMHITLNFEEVKGKTTVTSTSTFPTESAAQQAIDMGVETGMNSTLNQLEKLLNQKLEHHHHHH	not failed
MTIEPTQSPSSEPEVHSGEDFVHIDDPRPTGDISLSDSIVNVEKDELLDEAAEEEFRGSDSVFSGGDGGGADDDGGECSSEATKVELPEELAKSVVILTCESTADGGSCDVYLVGTAHVSKVILVLRFHLVLSLQRSCLGIELIFW	failed
MTIIKYIKFVVIIVIVTIVFSCSKNEAGNSEYDPSLPISLTDFFPIQGGMATRMVIEGANFGTDLSQIKVFFNQKEASILNVKNSIIYLLVPKLPGNDCIVTVKVGNQEARFTRNFQYIENYSVTTIAGQPGTNLFVEGTLAAAQFGPVQHLAIDDENNLFITERNGSDGKGTCSVLNEESGTVTFLFKASDNLNVPTVNAQTQNVYIPLDGGYTFYELNPVNQWIAKSRLVLHPSKEQQEAGMDDFEINWKHSLAFSRYDNMIYTRSYGGDLIKVDPETRVGQKIGNFFPNTDSFIVAHPTQPEILYIAYAAKHVIYTYNIETGEHKLFAGAFGQSGWNDGIATDAEFNSPRQMSLDMEGNIYIADSGNHCIRMIDKNGIVTTPIGQPGEAGYADGSPDMALLNDPRGVAVNSEGDVYIADLGNRCIRKLTLQLEHHHHHH	failed
MTIISTIFFFSFSVFFVIRYLKLKKIYDLLMIFVGLYAGLINMKLMSLSTTVSYVLDTIVIVLVIISVILFLKDKKNY	failed
MTIMAGCMLVLPVMDAIAKYMAVSVGMSPAQVTFYRFFFQVLCTLPLLLVVSPGALFSAKRPWMNCLRGVLHASASLMFFAAVKYMPLADVFAIYFVEPFMLTMMSALFLGDRVGWKRWTAIVVGFGGALIVIQPSFEIFGWTSLLPVACAFFYTLYLFLNRAIGDADSPLVMQTMSGIAGTLFMAAALFAGDALGDKDFAVSLPQSAFALVLLVLLGSLSGYMHLLIVRAFRLAPLSLLAPFQYFEIISATILGYALFSDFPTPSKWLGILIIVASGLFIIWRERQQPASTPPLEGQ	failed
MTISSRKAALAAVLLASVAVPAAAEPVFNRIASFPVAENLPGDKDKLSQTSAEIITATDDGNTLIYSDSPLGAIGFIDITDAKAPKSGGALMMDGEPTSVTSSAGKALVAVNTSESKARPSGRLAIVDVATKKIENTCDLGGQPDSIALNKDKTLGTIAIEDERDEDVNDGNIPQMPAGDLVVFRVKNGAVDCGSIKHVTLTDLAGVVPEDPEPEFVAFNGLNEIALTLQENNEIVIIDANTAEVKTHFSAGSVDLTGIDTKRDGALKFTGESKGVLREPDAVKWLDDNRLVVANEGDYHGGSRGFTIFDKTGKLLYESGASFERAVAHIGHYPESRSESKGVEPEGLEAAKFGDDQYFFLLAERASVVGVYKDTGADPELVQLLPSGISPEGGVAIPARNLFATANELDLGKDGGVRSHVMIYERSEGEKAYPQIVSAEKDGNPIGFAALSGLAAVPGKPGMLYAVSDSVLGSQPTIYTIDATKKPAVITDRLVVKRDGAPAQKLDIEGIAAAADGSFWLASEGYSERLVPHALYNVNAKGDIRAEIALPKELTANEIRFGFEGVTIIGTGDDATLWMAVQREWGDDEKGFVKLVSYNPKKKEWGAVRYPLDKTESGWVGLSEISAHGDSVYIIERDNLVGDAAKLKKLYKVAISELKPAKLGGELPVVKKTEAHDFLGELKTATNGYVLDKLEGFTFDASGKPYAVTDNDGVSDSSGETLFFPVELSATN	failed
